Laboratory results: the supplement of paper PMC12636428

What follows are sequences tested on Saccharomyces cerevisiae (assay: transcriptional activation domain activity (GFP:mCherry ratio, weighted mean of sorted bins, harmonized to initial dataset scale) (arbitrary fluorescence ratio units); higher = stronger transcriptional activation). Conditions: beta-estradiol 1 µM; induction time 4 h.
Summary of the method: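 Activation activity, the read-weighted mean of bin median fluorescence averaged across barcodes, was linearly mapped onto the scale of the initial dataset. It was measured for barcoded protein tiles fused to an estradiol-inducible synthetic transcription factor at URA3 in GFP-reporter yeast diploids. Cultures diluted 1:5 into SC with 1 uM beta-estradiol were held 4 hours at 30 °C, sorted into 8 bins by GFP:mCherry ratio, and barcode-sequenced, and tiles under 50 reads were discarded.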

Sequence	transcriptional activation domain activity
DTSSFFLRFFHFPFLQLFLLQCLISPCLYVRTCPISLLLLWWCFYSVFFCVRG	50300
GEKATEAANGEGSGTEGSRRRASGRGRGRGRGRNGRGGARGGRAGDAEEKKEG	9280
LLGLYMKMRFRTQEDFWRQIAILLRDLFVPDLQAETVVFFMRLLYNSNSMYKH	24100
ALGLPARPVSHHILIAIPSGLPLRTHELFMQLLFEHLHLSAVMLVDRSIAQTY	55300
SLNVLACGAIILFPRLAFLVVNNNAIVLGLRVMFVKFVFVCLLALWCFAGFLL	69300
MKEPVDDNVLQEPVPFEDFKFSFGMDPDFSFPLEPTLPTPQLSFMQDPFLLFP	116000
VFFVWICCCYGTHILSVFVDPSGMYIVPLNILGSLLHGSTLPCIVASWLIIHL	45600
AMRSWSGLMVLSMYDFRPIRSLIASILFPNAAIRETVLDLLFSLLRIKPPAWA	38100
SSRYDPVKSVFLPLDPMPLPRDFFFSFALILFCPSPFYTSLLSLYLISPLLFP	60800
EQGDTPAKKKARKGASGTGRKRKTVGDDEAAGGNEQEGQPKKKARREKAAATE	29300
EQKVPEGVKDSWDASSDEEEEETAVKPSKPAAAANGKSPSAPAKAATHAKPAP	23500
ASLEGGGGVVDISGETSSYVWRVLVYLAFINPFFCFLCALYAILILLAVLVTY	29300
CLLGTGSFWGLVYISLAYMDGFAFKYLLQFHHIIKLLWISTVGGLIMIAFWSF	52900
TLLIASLLVVLCLLRRFLLSILCNRDFYMIKFYTFFLYQILLCSLLKCLRLLW	80500
HTKSTESLVQLDDADGSRLDKVSGSLIQSLLASLGAQHKLVADAALTFLTAGR	43900
SSVVLFVFFLLFLLFSLFFYPTWLLPCLIFLLNDYLLFFLLFFCRVSCSFAPL	45800
MLMGCLCSYLRPHSLGCEGCYLLLHSLFIYGLRLVIGRFMSWSFSLVSFLFFY	62100

Sequence	transcriptional activation domain activity
MCVLHHLSHTLCFALFCYVIEAFRFTSYLLLLPFWRFYVLVVIPLFIHISYVF	52500
KQYCVRPNSGRIEPGKSVEVTVLLQAMKQEPPMDAKCRDKFLVQSVAVTADKE	31600
MRDISTLTVCCPLLFFLNLLHFLCFSLCFSLTYFINCLTFLLFLYISFFIKLF	42800
FLLDIFLLLVPSFPFSYTPFLVTSLFLVLCDIDVFLRFIYVHIYLVTLICTFM	30400
MHPCTLLSFRVFAYFYLLLIPPPPLLYSYLSYTNIYSYIIVLLLLLLFYVTIV	54800
MFLVLGWMFAHFVTVSCWPLLLWHVFFWCCLTGASEAELFIPPFIFRLPILSS	74400
LKIKLLVVWFWLLDAIHICMLCSSNWRDLIVHYGDRRTLDYIPPTTALAILFT	79600
RRDILHRAIVFEGDAARSGTASTKWRSEVRGSARKMRPQKGSGRARLGDKKSP	15600
PYILPLLILSKRLHSIFMLRCFNDCFAILFLFLAILCFQRRHWTVGSLIYSWG	48300
MGNKQDGVSGLGFMLISFSCLLLEWLTCAVSSILLSSEFWELSLVCLTLFWFL	28900
AAEEEDEEAKPLPAKKKRSSKKRKAEDAAEPEEKPAAKKKTAKVSGRGKKAAD	16300
MAKKASGSADKKTADKGDKKGKAKPTADDGEDKQSKGKGALKAATAVNVRHIL	44600
VVTLHEILKCLGHLRSLVLTAKAFGCLQAIRMILEHFLLVWRKTITHCLRYSE	60400
AAGASTTAQVSKKRQVLLRVNNRTYTRIDCIGRGGSGKVYRVSAESGKMLALK	62100
RSRSPEPARKKVDVKQEEPLASSKWAKDDDETLRKRESELKEGLLRKKVTASL	34800
AKNLHLHILRHPSKWMKLYFYLWPLIVFYHIPLQSFFDFNAVFMLLQVARFPN	50100
GSIDITRLGLSFTIIGDLWRQVWWAMLGRDEFASLRKNVSYSRQSLQNLLVTM	61800
